From patent publication US20080118498A1 (Eli Lilly, published 2008) come the findings set out here.

Substitutions are numbered along the chain they refer to.

Experiment [1] deals with T1, C8 acylated human ghrelin (1-28) (human, n-octanoyl group on the serine at position three (Ser3)).
T1 construct: 28-residue peptide hormone; In the first KinExA experiment a biotinylated form was on the beads and the unlabelled peptide was titrated in solution; also called Human C8 ghrelin; human C8 acylated ghrelin (1-28)
The experiment is described as follows: KinExA solution equilibrium; constant Fab, ghrelin titrated, free Fab captured on biotin-C8-ghrelin streptavidin beads. The procedure: The KinExA 3000 instrument, manufactured by Sapidyne, is used to measure binding kinetics. Briefly, streptavidin is covalently coupled to azlactone beads. Biotinylated C8 acylated human ghrelin (1-28) is subsequently bound to these streptavidin beads. The binding of free anti-ghrelin Fab to the beads is detected on the instrument.
To measure Kds, individual tubes containing a constant concentration of 20-100 pM of Fab with decreasing serially diluted C8 acylated human ghrelin (1-28) are incubated for 18 h at 20° C. in 0.1% BSA, PBS. […] For example, clone 4a1 is used at a constant concentration of 20 pM and individual tubes are incubated with 0-20 nM of ghrelin. Incubations for other Fabs are set in a similar manner. After incubation, free Fab in each equilibrated sample is determined on the KinExA 3000 instrument according to the manufacturer's instructions. Kd values are determined using the KinExA 3000 software.

Experiment [2] addresses T1, C8 acylated human ghrelin (1-28). The experiment is described as follows: BIAcore SPR; Mab amine-coupled to CM5 chip, ghrelin injected, n = 2. The procedure:
(§1) The affinity (Kd) of humanized C2 anti-ghrelin Mabs is measured using a BIAcore® 2000 instrument containing a CM5 sensor chip. The BIAcore® utilizes the optical properties of surface plasmon resonance to detect alterations in protein concentration of interacting molecules within a dextran biosensor matrix. Except where noted, all reagents and materials are purchased from BIAcore® AB (Uppsala, Sweden). All measurements are performed at about 25° C. All samples containing either rat or human ghrelin (full length, C8- or C10-acylated, or desacylated) and anti-ghrelin Fab or Mab are diluted in HBS-EP buffer (150 mM sodium chloride, 3 mM EDTA, 0.005% (w/v) surfactant P-20, and 10 mM HEPES, pH 7.4). A capture antibody, goat anti-mouse kappa (Southern Biotechnology, Inc), or goat anti-mouse Fc gamma (Jackson ImmunoResearch), is immobilized onto flow cells using amine-coupling chemistry. Flow cells (1-4) are activated for 7 minutes with a 1:1 mixture of 0.1 M N-hydroxysuccinimide and 0.1 M 3-(N,N-dimethylamino)propyl-N-ethylcarbodiimide at a flow rate of 10 μl/min. The capture antibody, for example goat anti-mouse kappa, is diluted to 30 μg/mL in 10 mM sodium acetate, pH 4.5, and manually injected over all four flow cells at a flow rate of 10 μL/min. The surface density is monitored, and additional capture antibody is injected as needed to each individual cell until all flow cells reach a surface density of 4500-5000 response units (RU). Surfaces are blocked with a seven minute injection of 1 M ethanolamine-HCl, pH 8.5(10 μL/min). To ensure complete removal of any noncovalently bound capture antibody, 15 μL of 10 mM glycine, pH 1.5, are injected twice. Running buffer for kinetic experiments is HBS-EP buffer (150 mM sodium chloride, 3 mM EDTA, 0.005% (w/v) surfactant P-20, and 10 mM HEPES, pH 7.4). For C2_{—}4A1, 5A1, and 7A1, the antibody is directly coupled to a CM5 chip using the amine-coupling chemistry described above, aiming for a surface density of between 800-1000 RU.
(§2) Collection of kinetic binding data is performed at maximum flow rate (100 μL/min) and a low surface density to minimize mass transport effects.

The target in experiment [3] is T2, Rat C8 ghrelin (28 amino acids, C8-acylated) (rat, UniProt Q9QYH7 24-51, C8-acylated (n-octanoyl; octanoylated at Ser3 as told for rat ghrelin in paragraph 40)).
T2 construct: mature; the assay used the 28-residue peptide; also called C8-acylated rat ghrelin
T2 peptide (looked up): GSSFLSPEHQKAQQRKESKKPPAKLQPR
Described as above. As to the method:
as §1, §2

Experiment [4] addresses T2, Rat C8 ghrelin (28 amino acids, …). The experiment is described as follows: BIAcore SPR; Mab captured by goat anti-mouse kappa or anti-mouse Fc gamma, ghrelin injected, n = 7. The procedure:
as §1, with “RU. […]” for “RU.”

The target in experiment [5] is T3, Human C10 ghrelin (1-28) (human, n-decanoyl group on Ser3 (C10-acylated)).
T3 construct: also called decanoyl ghrelin (1-28)
The experiment is described as follows: BIAcore SPR; Mab captured by goat anti-mouse kappa or anti-mouse Fc gamma, ghrelin injected, n = 6. The procedure:
as §1, with “RU. […]” for “RU.”

Experiment [6] concerns the target T1, C8 acylated human ghrelin (1-28). The experiment is described as follows: KinExA solution equilibrium; C8 ghrelin coupled to azlactone beads, n-curve analysis, n = 2. The procedure: (§3) Briefly, 10 μg human C8 acylated ghrelin (1-28) is covalently coupled to 50 mg azlactone beads (Sapidyne). […] For example, anti-ghrelin C2 murine Fab is used at a constant concentration of either 60, 600, or 6000 pM, and individual tubes are incubated with 0-60, 0-100, or 0-1000 nM of ghrelin, respectively. After the incubation, free Fab or Mab in each equilibrated sample is determined on the KinExA 3000 instrument according to the manufacturer's instructions. Kd values are assessed using the KinEkA 3000 n-curve analysis software.

Experiment [7] has the same target. The experiment is described as follows: BIAcore SPR; Mab captured by goat anti-mouse kappa or anti-mouse Fc gamma, ghrelin injected, n = 11. As to the method: as §1, with “RU. […]” for “RU.”
Experiment [8] has the same target. The experiment is described as follows: KinExA solution equilibrium; C8 ghrelin coupled to azlactone beads, n-curve analysis, n = 3. The procedure: as §3
Experiment [9] has as its target T2, Rat C8 ghrelin (28 amino acids, …). The experiment is described as follows: BIAcore SPR; Fab captured by goat anti-mouse kappa, ghrelin injected, n = 5. As to the method: as §1, with “RU. […]” for “RU.”
Experiment [10] addresses T3, Human C10 ghrelin (1-28). The experiment is described as follows: BIAcore SPR; Fab captured by goat anti-mouse kappa, ghrelin injected, n = 3. The procedure: as §1, with “RU. […]” for “RU.”
The target in experiment [11] is T1, C8 acylated human ghrelin (1-28). The experiment is described as follows: BIAcore SPR; Fab captured by goat anti-mouse kappa, ghrelin injected, n = 8. The procedure:
as §1, with “RU. […]” for “RU.”

T3 sequence (peptide, as listed by the source): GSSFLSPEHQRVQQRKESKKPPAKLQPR

B1: C2 chimeric Fab (heavy and light chain variable regions of C2 murine Fab 1111 fused to human CH1 and CL domains) (Fab, V domains shown)
VH: EIQLQQSGAELMKPGASVKLSCKATGYIFTGYWIEWVKQRPGHGLEWIGEILPGSGSTNYNEKFKGKATFTADTSSNTANMQLSSLTTEDSAIYYCARYPQFRLRRERIAYWGQGTLVTVSV
VL: DLVLTQSPASLAVSLGQRATISCRASKSVSTSGYSYMHWYQQKPGQPPKLLIYLASNLESGVPARFSGSGSGTDFTLNIHPVEEEDAATYYCQHSRELPYTFGAGTKLELKR
Take B1: binding in experiment [1] was put at a Kd of 1.1 nM.

B2: Mab C2 (murine VH/VL Fab 1111 sequences with rat Fc chimera) (antibody, V domains shown)
VH: B1 VH
VL: B1 VL
notes: Chimera with rat Fc
As for B2, in experiment [2], the dissociation constant (Kd) is 0.363 nM, the off-rate constant (koff) turned out to be 0.0028 s⁻¹ and the kon worked out at 7.4e+06 M⁻¹ s⁻¹. Moreover, in experiment [3], binding was put at a Kd of 0.687 nM, the off-rate constant (koff) came to 0.0019 s⁻¹ and the association rate constant (kon) came to 3.3e+06 M⁻¹ s⁻¹.

B3: Mab C2 (full murine sequence, i.e., Fab 1111 VH/VL and murine Fc) (antibody, V domains shown)
VH: B1 VH
VL: B1 VL
notes: Full-length murine antibody with a kappa light chain (it was captured with anti-mouse kappa); also called Anti-ghrelin C2 Mab
Consider B3, for which the Kd in [4] came to 2.6 nM; with Human C10 ghrelin (1-28) [5], 4.1 nM; in experiment [6], 1.44 nM; in experiment [7] it was 0.779 nM. Besides, the koff in experiment [4] was determined as 0.0018 s⁻¹; with Human C10 ghrelin (1-28) [5], 0.0092 s⁻¹; in experiment [7], 0.0015 s⁻¹. Moreover, the kon in [4] is 800000 M⁻¹ s⁻¹; with Human C10 ghrelin (1-28) [5] it was 1.9e+06 M⁻¹ s⁻¹; in experiment [7], 2.4e+06 M⁻¹ s⁻¹.

B4: C2 murine Fab 1111 (Fab, V domains shown)
VH: B1 VH
VL: B1 VL
notes: also called Anti-ghrelin C2 Fab (Fab1111)
As to B4, the equilibrium dissociation constant (Kd) is 1.03 nM in [8], 1.23 nM in experiment [9], 4.55 nM with Human C10 ghrelin (1-28) [10] and 0.953 nM in experiment [11]. Further, the figures for the dissociation rate constant (koff) (in [9]; in the experiment with Human C10 ghrelin (1-28) [10]; in experiment [11]) were 0.0016 s⁻¹, 0.0088 s⁻¹ and 0.0016 s⁻¹, respectively. Moreover, the association rate constant (kon) in experiment [9] is 1.4e+06 M⁻¹ s⁻¹; in the experiment with Human C10 ghrelin (1-28) [10], 2.1e+06 M⁻¹ s⁻¹; in [11] it was 1.7e+06 M⁻¹ s⁻¹.

B5: Humanized, affinity matured C2 anti-ghrelin Fab 7b2 (Fab, V domains shown)
VH: QVQLVQSGAEVKKPGASVKVSCKATGYIFTGYWIEWVRQAPGQGLEWMGDILPGSGSPNYNEKFKGRVTMTTDTSTSTAYMELRSLRSDDTAVYYCARYPIFRLRTERIAEWGQGTLVTVSS
VL: DIVMTQSPDSLAVSLGERATINCRASKSVSLLGYSYMHWYQQKPGQPPKLLIYFASNLESGVPDRFSGSGSGTDFTLTISSLQAEDVAVYYCQHSIEEPYTFGQGTKLEIK
notes: Fab; The constant domains are not described
Molecule B5 came in with a Kd in [1] of 0.0253 nM.

B6: Mab C2_5A1 (humanized, affinity matured VH/VL (Fab C2-5a1 sequences) with rat Fc chimeric C2 anti-ghrelin antibody) (antibody, V domains shown)
VH: B5 VH
VL: B5 VL with L32S
notes: Humanized VH/VL with rat Fc; also called C2-5a1 antibody
In [2], B6 displayed a Kd of 0.013 nM, an off-rate constant (koff) of 0.00012 s⁻¹ and a kon of 8.6e+06 M⁻¹ s⁻¹. Besides, in experiment [3], the Kd came out at 0.02 nM, the koff was 0.00012 s⁻¹ and the kon was determined as 6.6e+06 M⁻¹ s⁻¹.

B7: Humanized, affinity matured C2 anti-ghrelin Fab 7a1 (Fab, V domains shown)
VH: B5 VH with L104P, E111Y
VL: B5 VL with I96V
notes: Fab; The constant domains are not described for this clone
B7 yielded an equilibrium dissociation constant (Kd) in experiment [1] of 0.0042 nM.

B8: Mab C2_7A1 (human VH/VL with rat Fc chimera) (antibody, V domains shown)
VH: B5 VH with L104P, E111Y
VL: B5 VL with I96V
notes: Humanized VH/VL with rat Fc; The Mab is tied to the Fab 7a1 variable regions by its clone name only
Turning to B8, in experiment [2], binding was characterised by a dissociation constant (Kd) of 0.012 nM, the koff was 0.00013 s⁻¹ and the kon came to 1e+07 M⁻¹ s⁻¹.

B9: Humanized, affinity matured C2 anti-ghrelin Fab 5a1 (Fab, V domains shown)
VH: B5 VH
VL: B5 VL with L32S
notes: Fab; The constant domains are not described for this clone; also called Fab C2-5a1
For the molecule B9, the Kd in [1] amounted to 0.001 nM.
